This passage reports IC50 results from paper PMC6026317 (2018).

Ends that are not written are not given here.

The target of one test is T1, Soluble human FGFR1c/KLB receptor complex (FGFR1c ectodomain-Fc with soluble KLB) (human, UniProt P11362 22-376; Q86Z14 1-996). Put plainly: AlphaScreen competition with biotinylated FGF21. A general note: In Alpha technology, singlet oxygen from a donor bead excites a nearby acceptor bead.
T1 sequence (P11362 22-376, chain 1 of 2): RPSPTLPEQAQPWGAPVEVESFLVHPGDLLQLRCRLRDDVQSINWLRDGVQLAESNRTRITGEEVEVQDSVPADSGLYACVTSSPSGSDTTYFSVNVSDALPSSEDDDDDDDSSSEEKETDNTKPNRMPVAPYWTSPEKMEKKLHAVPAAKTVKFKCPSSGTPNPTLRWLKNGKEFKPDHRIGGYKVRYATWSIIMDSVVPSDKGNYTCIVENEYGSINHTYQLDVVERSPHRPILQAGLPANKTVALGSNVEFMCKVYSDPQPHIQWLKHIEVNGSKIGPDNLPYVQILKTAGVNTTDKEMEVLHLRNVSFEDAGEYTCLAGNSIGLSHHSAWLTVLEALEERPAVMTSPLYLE
T1 sequence (Q86Z14 53-996, chain 2 of 2): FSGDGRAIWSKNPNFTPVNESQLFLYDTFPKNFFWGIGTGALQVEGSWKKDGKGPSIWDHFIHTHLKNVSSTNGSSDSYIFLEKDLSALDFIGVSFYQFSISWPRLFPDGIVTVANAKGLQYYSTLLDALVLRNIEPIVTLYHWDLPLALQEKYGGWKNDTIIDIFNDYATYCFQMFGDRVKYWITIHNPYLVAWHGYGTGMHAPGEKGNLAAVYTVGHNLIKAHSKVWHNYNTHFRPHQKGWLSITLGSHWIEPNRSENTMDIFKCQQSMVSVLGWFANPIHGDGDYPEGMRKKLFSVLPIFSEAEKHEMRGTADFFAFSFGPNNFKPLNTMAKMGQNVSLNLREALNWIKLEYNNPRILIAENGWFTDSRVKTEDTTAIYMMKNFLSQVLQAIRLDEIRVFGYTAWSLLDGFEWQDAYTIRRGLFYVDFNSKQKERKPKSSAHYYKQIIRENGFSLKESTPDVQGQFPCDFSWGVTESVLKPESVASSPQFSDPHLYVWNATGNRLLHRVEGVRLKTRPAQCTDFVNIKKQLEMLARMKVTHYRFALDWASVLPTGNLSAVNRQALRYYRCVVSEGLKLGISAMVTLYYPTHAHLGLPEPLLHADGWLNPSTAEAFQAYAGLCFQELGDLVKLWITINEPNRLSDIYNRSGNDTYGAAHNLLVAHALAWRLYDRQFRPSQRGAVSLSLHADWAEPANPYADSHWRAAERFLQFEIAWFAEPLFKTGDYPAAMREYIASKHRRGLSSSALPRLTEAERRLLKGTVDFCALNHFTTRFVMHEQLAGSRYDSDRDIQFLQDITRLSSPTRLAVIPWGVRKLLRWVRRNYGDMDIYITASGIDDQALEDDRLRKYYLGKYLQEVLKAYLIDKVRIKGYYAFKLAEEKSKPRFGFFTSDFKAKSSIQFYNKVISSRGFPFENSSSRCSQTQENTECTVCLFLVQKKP
In turn, PPDVGSSDPLSMVGPSQGRSPSYAS-NH2 [21C25 (C-terminal 25-residue peptide of FGF21)] gave an IC50 of 150 nM.

For the next test, the target named is T1, Soluble human FGFR1c/KLB receptor …. Put plainly: AlphaScreen competition with biotinylated FGF21. The source holds these as a separate data set.
Take PPDVGSSDPLSMVGASQGRSPSYAS-NH2 [21C25 P171A]: the IC50 amounted to 130 nM.
On the same count and under the same terms, next, PPDVGSSDPLSMVGPSQGRSASYAS-NH2 [21C25 P177A]: 2500 nM; PADVGSSDPLSMVGPSQGRSPSYAS-NH2 [21C25 P158A]: 890 nM.
The same measure, in the same setting: next, PPDVGSSDPLSMVGPSQGASPSYAS-NH2 [21C25 R175A]: 50 nM; PPDVGSADPLSMVGPSQGRSPSYAS-NH2 [21C25 S163A]: 190 nM; PPDVGSSDPLSMVGPSQGRSPAYAS-NH2 [21C25 S178A]: 2870 nM.
Molecule APDVGSSDPLSMVGPSQGRSPSYAS-NH2 [21C25 P157A] showed an IC50 of 420 nM. Compared with the last molecule, the IC50 is about 6.8-fold lower.
For the molecule PPDAGSSDPLSMVGPSQGRSPSYAS-NH2 [21C25 V160A], the half-inhibitory concentration (IC50) was 3980 nM. Compared with the last molecule, the IC50 is about 9.5-fold higher.
PPAVGSSDPLSMVGPSQGRSPSYAS-NH2 [21C25 D159A] showed an IC50 of 1390 nM.
PPDVGSSDPLAMVGPSQGRSPSYAS-NH2 [21C25 S167A]: the IC50 came to 200 nM.
With PPDVGSSDPLSMVGPSQARSPSYAS-NH2 [21C25 G174A], the half-maximal inhibitory concentration (IC50) was determined as 150 nM.
Still for that read-out and setting: the result for PPDVGSSDPLSMVGPSQGRAPSYAS-NH2 [21C25 S176A] reads 3140 nM.
Regarding PPDVGSSDPLSMVGPSAGRSPSYAS-NH2 [21C25 Q173A], the IC50 was 70 nM.
Take PPDVGSSDPLSMVGPSQGRSPSYAA-NH2 [21C25 S181A]: the IC50 was determined as 50 nM. This IC50 and that of the molecule before are within 1.5-fold of each other.
On the same count and under the same terms, next, PPDVGSSDPLSMAGPSQGRSPSYAS-NH2 [21C25 V169A]: 3110 nM.
Still for that read-out and setting: next, PPDVGSSDPLSMVGPAQGRSPSYAS-NH2 [21C25 S172A]: 120 nM; PPDVGSSDPLSMVAPSQGRSPSYAS-NH2 [21C25 G170A]: 180 nM.
Same read-out and setting: the result for PPDVASSDPLSMVGPSQGRSPSYAS-NH2 [21C25 G161A] reads 160 nM; that for PPDVGSSDPLSMVGPSQGRSPSAAS-NH2 [21C25 Y179A], 2580 nM; that for PPDVGASDPLSMVGPSQGRSPSYAS-NH2 [21C25 S162A], 2130 nM.

The term IC50 denotes the concentration at which inhibition is half-maximal. A higher IC50 goes with lower potency.
